Source: publication PMC8764033 (2022)
Values joined by “and” are separate entries in the source; they are usually repeats but may differ in a detail not shown here. Equal values may be shown once. Where no end group is shown, it is not given here. Cy5 = cyanine-5 fluorescent label

T1: WD40 domain of Cdh1 from Saccharomyces cerevisiae (aa 241–550), for anisotropy (S. cerevisiae, UniProt P53197 241-550)
T1 chain: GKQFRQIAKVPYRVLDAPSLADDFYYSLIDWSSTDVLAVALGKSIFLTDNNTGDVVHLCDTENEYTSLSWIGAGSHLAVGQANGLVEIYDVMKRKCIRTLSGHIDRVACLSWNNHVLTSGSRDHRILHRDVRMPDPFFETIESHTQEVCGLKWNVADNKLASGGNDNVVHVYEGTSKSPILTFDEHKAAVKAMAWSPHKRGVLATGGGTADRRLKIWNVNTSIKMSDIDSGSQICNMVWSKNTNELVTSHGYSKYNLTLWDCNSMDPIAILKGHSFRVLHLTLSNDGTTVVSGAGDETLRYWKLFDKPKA

T2: WD40 domain of human Cdc20 (aa 162–484), for anisotropy (human, UniProt Q12834 162-484)
T2 chain: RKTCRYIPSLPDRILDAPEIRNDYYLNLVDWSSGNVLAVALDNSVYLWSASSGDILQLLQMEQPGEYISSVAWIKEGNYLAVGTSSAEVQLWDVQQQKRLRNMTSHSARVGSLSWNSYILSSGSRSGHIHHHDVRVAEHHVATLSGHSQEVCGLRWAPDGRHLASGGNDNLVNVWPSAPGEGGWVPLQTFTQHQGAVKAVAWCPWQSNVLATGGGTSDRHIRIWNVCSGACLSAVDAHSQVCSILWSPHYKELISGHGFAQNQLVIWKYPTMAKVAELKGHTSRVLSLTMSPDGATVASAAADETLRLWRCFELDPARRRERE

B1: Cy5-labeled Hsl1 KEN peptide (peptide)
chain: GVSTNKENEGPEYPTKIEK-Cy5
B2: Cy5-labeled Hsl1 D box peptide (peptide)
chain: EQKPKRAALSDITNSFNKMNK-Cy5
B3: Cy5-labeled Clb5 D box peptide (peptide)
chain: QDSKPRRALTDVPVNNNPLSQK-Cy5
B4: Cy5-labeled Hsl1 D box mutant peptide (peptide)
chain: EQKPKAAAASDITASFNKMNK-Cy5
B5: Cy5-labeled ySecurin D box peptide (peptide)
chain: AQQQGRLPLAAKDNNRSKSFIK-Cy5

Tests used:
[1] = target: T1, WD40 domain of Cdh1 from Saccharomyces …; assay: FP
[2] = target: T1, WD40 domain of Cdh1 from Saccharomyces …; assay: FP; + unlabeled Hsl1 D box peptide (100 uM)
[3] = target: T1, WD40 domain of Cdh1 from Saccharomyces …; assay: FP; + unlabeled Hsl1 D box mutant peptide (100 uM)
[4] = target: T2, WD40 domain of human Cdc20 (aa …); assay: FP
[5] = target: T1, WD40 domain of Cdh1 from Saccharomyces …; assay: FP; + unlabeled Hsl1 KEN peptide (100 uM)
[6] = target: T1, WD40 domain of Cdh1 from Saccharomyces …; assay: FP; + unlabeled Hsl1 KEN mutant peptide (100 uM)

Binder | Kd [1] [µM] | further results
B1 | 22 | Kd [2]: 3.4 µM; Kd [3]: 16 µM and 11 µM
B2 | 2.9 | Kd [4]: 2.5 µM; Kd [5]: 1.1 µM and 1.2 µM; Kd [6]: 2.9 µM
B3 | > 30.6 | 
B4 | > 30.6 | 
B5 | > 30.6 | 
